Numbering of substitutions follows the chain as printed. “Also recorded” adds a separate entry of the source.
B1: butyrylcholinesterase: the enzyme butyrylcholinesterase; plasma enzyme that deactivates cocaine (protein, UniProt P06276 29-602, looked up)
Cholinesterase: EDDIIIATKNGKVRGMNLTVFGGTVTAFLGIPYAQPPLGRLRFKKPQSLTKWSDIWNATKYANSCCQNIDQSFPGFHGSEMWNPNTDLSEDCLYLNVWIPAPKPKNATVLIWIYGGGFQTGTSSLHVYDGKFLARVERVIVVSMNYRVGALGFLALPGNPEAPGNMGLFDQQLALQWVQKNIAAFGGNPKSVTLFGESAGAASVSLHLLSPGSHSLFTRAILQSGSFNAPWAVTSLYEARNRTLNLAKLTGCSRENETEIIKCLRNKDPQEILLNEAFVVPYGTPLSVNFGPTVDGDFLTDMPDILLELGQFKKTQILVGVNKDEGTAFLVYGAPGFSKDNNSIITRKEFQEGLKIFFPGVSEFGKESILFHYTDWVDDQRPENYREALGDVVGDYNFICPALEFTKKFSEWGNNAFFYYFEHRSSKLPWPEWMGVMHGYEIEFVFGLPLERRDNYTKAEEILSRSIVKRWANFAKYGNPNETQNNSTSWPVFKSTEQKYLTLNTESTRIMTKLRAQQCRFWTSFFPKVLEMTGNIDEAEWEWKAGFHRWNNYMMDWKNQFNDYTSKKESCVGL
B2: Mab 15A10: mouse monoclonal anti-cocaine catalytic antibody elicited by TSA 1; most active (antibody, V domains shown)
VH: SGPELVKPGASVKVSCKASGYSFTDYNMYWVKQNHGESLEWIAYIDPSNGDTFYNQKFQGKATVTLDKSSSTAFMHLNSLTSEDSAVYYCARGGGLFAFWGQGTLVTVSA
VL: AVVTQESALTTSPGETVTLTCRSSTGTITSDNYANWVQEKPDHLFSGLIGVNNYRPPGVPARFSGSLTGDKAVLTITGAQTEDEAIYFCALWYSNHWVFGGGTKLTVLG
modifications: mouse
B3: Mab 3B9: anti-cocaine catalytic monoclonal antibody elicited by TSA 1 (antibody, V domains shown)
VH: DVQLQESGPGLVKPSQSLSLTCTVTGNSITSDYAWTWIRQFPGNKLEWMGYIRHIYGTRYNPSLISRISITRDTSKNQFFLQLDSVTAEDTATYYCVRYHYYGSAYWGQGTLVTVSAAKTTP
VL: DIVMTQDELSNPVTSGESVSISCRSSRSLLYRDGKTYLNWFLQRPGRSPQLLIYLMSTRSSGVSDRFSGSGSGTDFTLEISRVKAEDVGVYYCQHFVDYPFTFGSGTKLEIKR
modifications: mouse
B4: Mab 6A12: anti-cocaine catalytic monoclonal antibody elicited by TSA 1 (antibody)
heavy: B3 VH
light: B3 VL with I2M, S60A, C93F, V97E
modifications: mouse
B5: Mab 2A10: anti-cocaine catalytic monoclonal antibody elicited by TSA 1 (antibody)
heavy: ELVKPSQSLSLTCTVTGYSITSDYAWNWIRQFPGNRLEWMGYIRYSGITRYNPSLKSRISITRDTSKNKFFLQLNSVTTEDTATYYCVRIHYYGYGNWGQGTTLTGLP
light: B3 VL with I2M, R27K, R32E, R47Q, Q50H, S60A, V90A, H95Q, D98E, K112R
modifications: mouse
B6: Mab 8G4E: anti-cocaine catalytic monoclonal antibody elicited by TSA 3 (antibody, V domains shown)
VH: VQLLESGAELVMPGASVKMSCKASGYTFTDHWMHWVKQRPGQGLEWIGTIDLSDTYTGYNQNFKGRATLTLDESSNTAYMQLSSLTSEDSAVYYCSRRGFDYWGQGTTLTVSS
VL: ELVMTQSPLTLSVTIGQPASISCKSSQSLLYSDGKTYLNWFFQRPGQSPKRLIYLVSKLDSGVPDRFTGSGSGKDFTLKISRVEAEDLGLYYCVQGYTFPLTFGAGTKLELKR
modifications: mouse
B7: single chain Fv fragment: single chain Fv fragment for catalytic monoclonal antibody 3B9, with FLAG and 6×His (protein)
scFv: MEVQLQESGPELVKPSQSLSLTCTVTGNSITSDYAWTWIRQFPGNKLEWMGYIRHIYGTRYNPSLISRISITRDTSKNQFFLQLDSVTAEDTATYYCVRYHYYGSAYWGQGTLVTVSAGMQSGGGGSGGGGSGGAMDIVMTQDELSNPVTSGESVSISCRSSRSLLYRDGKTYLNWFLQRPGRPPQLLIYLMSTRSSGVSDRFSGSGSGTDFTLEISRVKAEDVGVYYCQHFVDYPFTFGSGTKLEIKRADGAPTVSIFFPPSLDYKDDDDKLEHHHHHH
modifications: FLAG and 6xHis tags; mouse
notes: single chain Fv fragment for catalytic monoclonal antibody 3B9, with FLAG and 6×His
B8: Mab 8G4G: anti-cocaine catalytic monoclonal antibody elicited by TSA 3 (antibody)
heavy: VQLLESGAELVKPGASVELSCRTSGYTFTTYYIYWVKQRPGQGLEWIGGMNPGNGVTYFNEKFKNRATLTVDRSSSIAYMQLSSLTSEDSAVYYCTRVGNSLLTGAEGLWSLSLQ
light: TRAGETVTLTCRSSSGTITANNYGSWVQEKPDHLFTGLIGVSNNRGPGVPARFSGSLIGDKAVLTITGGQTEDEAIYFCALWNSNHFVFGGGTKLTVLGQ
modifications: mouse
B9: Mab 9A3: anti-cocaine catalytic monoclonal antibody elicited by TSA 1 (antibody, V domains shown)
VH: SGPELVKPGASVKLSCKASGYPFTDYNMYWVKQSHGKSLEWIGYIDPSNGGIFYNQKFKGRATLTVDKSSNTAFMHLNSLTSEDSAVYYCARGGGLFAYWGQGTLVTVSE
VL: TWPGETVTLTCRSSTGTITTSNYANWVQEKPDHLFSGLIGINNNRPPGVPARFSGSLIGDKAVLTITGAQTEDEAIYFCALWYSNHWVFGGGTKLTVLG
modifications: mouse

Key:
Mab 15A10 = assay: Inhibition of Mab 15A10 cocaine hydrolysis; assay type: biochemical, Mouse; conditions: for inhibition of Mab 15A10: at 1 mM; for Ki: read-out: inhibition constant (K1 / Ki) for Mab 15A10
catalytic mAb = assay: Inhibition of the activity of the catalytic mAbs; assay type: biochemical, mouse
[1] = tested on: cocaine esterase activity present in serum; assay: Inhibition of cocaine esterase activity present in serum; assay type: biochemical; conditions: 150 μM
[2] = tested on: conscious, unrestrained animals; conditions: continuously infused cocaine 1 mg/kg/min, i.v. catecholamine infusion; previous work (19); cited from earlier work
[3] = inhalation of vaporized cocaine; cited from earlier work
[4] = tested on: toxicity due to intraperitoneal cocaine; conditions: intraperitoneal administration, mouse; cited from earlier work
[5] = ELISA with TSA 1, 2, and 3 bound to ovalbumin; assay type: binding
Text: The rationale for varying the tether sites of TSA to carrier protein (BSA) was to expose unique epitopes and elect catalytic antibodies specific to each immunogen. In order to assess binding specificity, the catalytic antibodies were examined by ELISA with TSA 1, 2, and 3 bound to ovalbumin.

LD90 cocaine = assay: Survival after LD90 cocaine infusion; assay type: in vivo, rat; conditions: for survival to LD90 cocaine infusion: cocaine 16 mg/kg at 1 mg/kg/min
[6] = Plasma concentrations at death by HPLC; assay type: in vivo, rat; conditions: compared to saline or Mab 1C1 control groups, antibody 100 mg/kg
[7] = Hydrolysis of 3H-cocaine by Mab's (kinetic measurements); conditions: for Km: Michaelis constant, pH that optimized kcat/ko: in general pH 7.8, 6A12 pH 7.4, 2A10 pH 7.0; for krat: catalytic rate constant (turnover rate), same pH as Km; for kcat/ko: rate acceleration over spontaneous rate (kcat/kuncat)
[8] = tested on: cocaine-induced convulsions or death; conditions: antibody 100 mg/kg
[9] = Elisa analysis of single chain Fv fragment; assay type: binding; conditions: scFv of Mab 3B9
[10] = cocaine 1 mg/kg/min until death

Molecule | binding specificity by ELISA [5] | Km [7] | krat [7] | kcat/ko [7] | further results
COC(=O)[C@@H]1[C@H]2CC[C@@H](C[C@@H]1O)N2C [ecgonine methyl ester] |  |  |  |  | inhibition of Mab 15A10 (Mab 15A10): not inhibited; also recorded: not observed
CNC(=O)Oc1ccc2c(c1)[C@]1(C)CCN(C)[C@@H]1N2C [eserine, reference compound] |  |  |  |  | inhibition of the activity of any catalytic mAb (catalytic mAb; 1 mM): did not inhibit
COC(=O)C1C(OP(=O)(O)c2ccccc2)CC2CCC1N2C (centres unmarked) [free TSA 4] |  |  |  |  | inhibition of Mab 15A10 catalytic activity (Mab 15A10; free TSA 50 μM, bioreactor-produced Mab 15A10): completely inhibited; Ki (Mab 15A10): 0.23 µM; inhibition of all catalytic antibodies (enzymes) (catalytic mAb; 50 μM): inhibited completely; inhibition of cocaine esterase activity present in serum [1]: did not inhibit
O=C(O)CNC(=O)c1ccccc1 [hippuric acid] |  |  |  |  | inhibition of Mab 15A10 (Mab 15A10): did not inhibit; also recorded: not an inhibitor
COC(=O)[C@H]1[C@@H](OC(=O)c2ccccc2)C[C@@H]2CC[C@H]1N2C [cocaine] |  |  |  |  | LD50 [2]: 10 mg/kg; LD90 [2]: 16 mg/kg; peak pulmonary vein concentration [3]: 10 to 30 µM
O=C(O)c1ccccc1 [benzoic acid] |  |  |  |  | Kd (Mab 15A10; read-out: Kd, inhibition of Mab 15A10 in vitro): ~250 µM; Ki (Mab 15A10): 250 µM
CN1[C@H]2CC[C@@H]1[C@@H](C(=O)O)[C@@H](OC(=O)c1ccccc1)C2 [benzoyl ecgonine] |  |  |  |  | inhibition of Mab 15A10 (Mab 15A10): no inhibition
B1 |  |  |  |  | effect on toxicity due to intraperitoneal cocaine [4]: inhibit toxicity
B2 | bound only TSA-1 and 3 | 220 µM | 2.3 min⁻¹ | 2.3×10^4 | mean cocaine dose at death (LD90 cocaine; antibody 5 mg/kg): 8.2 ± 1.0 mg/kg; cocaine dose at death of the single non-survivor (LD90 cocaine; antibody 15 mg/kg): 15.9 mg/kg; survival to LD90 cocaine infusion (LD90 cocaine; antibody 15 mg/kg i.v.): Four of five; survival to LD90 cocaine infusion (LD90 cocaine; antibody 50 mg/kg i.v.): all of five; effect on survival / protection from cocaine toxicity (LD90 cocaine; result in words, p<0.001): dose-dependent increase in survival; also recorded: significant; increase in plasma ecgonine methyl ester [6]: > 10 fold; kcat (activity) remaining after repetitive turnover ([7]; after 6 hrs and >200 turnovers, of baseline): > 95%; potency relative to the first catalytic antibodies ([7]; at sub-saturating concentrations of cocaine): 100 fold; kcat/ko ([7]; listed as 15A10): 23000; increase of mean lethal dose of cocaine over controls [8]: over 3 fold; dose of cocaine at seizure (average) [8, 10]: 32.5 mg/kg; mean lethal dose of cocaine [8, 10]: 37.0 mg/kg
B3 | bound all three conjugates | 490 µM | 0.11 min⁻¹ | 1100 | 
B4 | bound all three conjugates | 1020 µM | 0.072 min⁻¹ | 880 | 
B5 | bound all three conjugates | 3000 µM | 0.011 min⁻¹ | 420 | 
B6 | bound only TSA-1 and 3 | 1200 µM | 0.12 min⁻¹ | 1100 | 
B7 |  |  |  |  | binding activity by Elisa [9]: demonstrated binding activity; catalytic activity (release of ^3H-benzoic acid from ^3H-phenyl-cocaine) ([7]; result in words): Enzymatic activity was confirmed
B8 | bound only TSA-1 and 3 | 530 µM | 0.60 min⁻¹ | 5500 | 
B9 | bound only TSA-1 and 3 | 270 µM | 0.015 min⁻¹ | 140 | 
